The text below walks through data of publication PMC10272163, “Genome-wide association studies identify OsWRKY53 as a key regulator of salt tolerance in rice”.

The target of this data set is MBP-OsWRKY53 (Oryza sativa (rice), UniProt A7BEY7 1-487). In words: EMSA; 60 fmol probe, 2 ug protein; EMSA: 20 uL, 25 C 30 min, LightShift kit buffer (composition not given), 6% native PAGE, 0.5x TBE pH 8.3, 4 C; SPR: CM5 chip with anti-biotin antibody capturing biotin-oligo, 10 uL/min, reaction buffer composition and temperature not given. Particulars: protein: recombinant; tags: MBP (N-terminal, pMal-c2x); label: biotin. A general note: In EMSA bound probe runs differently from free probe, usually more slowly.
MBP-OsWRKY53, sequence (A7BEY7 entry or part of it): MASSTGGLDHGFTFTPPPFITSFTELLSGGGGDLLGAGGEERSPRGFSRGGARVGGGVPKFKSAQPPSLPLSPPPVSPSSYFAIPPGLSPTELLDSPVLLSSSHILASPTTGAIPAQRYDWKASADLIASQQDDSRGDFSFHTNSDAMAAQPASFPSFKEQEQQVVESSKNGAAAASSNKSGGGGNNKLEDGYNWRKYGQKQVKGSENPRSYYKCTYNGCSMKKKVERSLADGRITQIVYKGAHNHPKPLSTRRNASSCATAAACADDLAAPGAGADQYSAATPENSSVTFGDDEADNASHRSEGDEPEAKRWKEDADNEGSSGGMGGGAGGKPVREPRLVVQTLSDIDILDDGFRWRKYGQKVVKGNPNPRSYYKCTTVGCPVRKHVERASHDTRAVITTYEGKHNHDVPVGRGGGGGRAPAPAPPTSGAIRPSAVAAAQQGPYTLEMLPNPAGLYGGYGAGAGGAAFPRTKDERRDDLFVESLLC

B1: OsHKT1;5 (SKC1) promoter W-box probe, 48 bp (SKC1-biotin-F1) (dsDNA)
DNA 1: ATAAGATGTTTTTGACTTTGGTCAAAGTCAAACTGTTTATGTTTGACC
DNA 2: GGTCAAACATAAACAGTTTGACTTTGACCAAAGTCAAAAACATCTTAT
As to B1, the binding result was “binds”.

B2: OsMKK10.2 promoter W-box probe, 48 bp (MKK10.2-biotin-F1) (dsDNA)
DNA 1: CGGTTTGGGAACCGACTTAGGGCGGTCAAGGCGCGAGCTGGCGCTCCG
DNA 2: CGGAGCGCCAGCTCGCGCCTTGACCGCCCTAAGTCGGTTCCCAAACCG
For B2, the binding result was “binds”.
